Article PMC4028250, “β1,6 GlcNAc Branches-Modified PTPRT Attenuates Its Activity and Promotes Cell Migration by STAT3 Pathway” (PLoS ONE, 2014)

Target: the molecule itself
Test: cross-linking; Mock-7721, GnT-V-7721, Mock-HT29 and GnT-V-HT29 cells grown to confluence, cell-surface proteins cross-linked with 3 mM BS3 for 2 hours at 4°C (on ice), stopped with 20 mM Tris-Cl, SDS lysis, immunoblot for PTPRT; dimer and monomer bands quantified with Image J

B1: receptor protein tyrosine phosphatase rho (PTPRT) (receptor, human (endogenous in SMMC-7721 and HT29), UniProt O14522 26-1441, looked up)
chain: QSAAGGCSFDEHYSNCGYSVALGTNGFTWEQINTWEKPMLDQAVPTGSFMMVNSSGRASGQKAHLLLPTLKENDTHCIDFHYYFSSRDRSSPGALNVYVKVNGGPQGNPVWNVSGVVTEGWVKAELAISTFWPHFYQVIFESVSLKGHPGYIAVDEVRVLAHPCRKAPHFLRLQNVEVNVGQNATFQCIAGGKWSQHDKLWLQQWNGRDTALMVTRVVNHRRFSATVSVADTAQRSVSKYRCVIRSDGGSGVSNYAELIVKEPPTPIAPPELLAVGATYLWIKPNANSIIGDGPIILKEVEYRTTTGTWAETHIVDSPNYKLWHLDPDVEYEIRVLLTRPGEGGTGPPGPPLTTRTKCADPVHGPQNVEIVDIRARQLTLQWEPFGYAVTRCHSYNLTVQYQYVFNQQQYEAEEVIQTSSHYTLRGLRPFMTIRLRLLLSNPEGRMESEELVVQTEEDVPGAVPLESIQGGPFEEKIYIQWKPPNETNGVITLYEINYKAVGSLDPSADLSSQRGKVFKLRNETHHLFVGLYPGTTYSFTIKASTAKGFGPPVTTRIATKISAPSMPEYDTDTPLNETDTTITVMLKPAQSRGAPVSVYQLVVKEERLQKSRRAADIIECFSVPVSYRNASSLDSLHYFAAELKPANLPVTQPFTVGDNKTYNGYWNPPLSPLKSYSIYFQALSKANGETKINCVRLATKGASTQNSNTVEPEKQVDNTVKMAGVIAGLLMFIIILLGVMLTIKRRRNAYSYSYYLKLAKKQKETQSGAQREMGPVASADKPTTKLSASRNDEGFSSSSQDVNGFTDGSRGELSQPTLTIQTHPYRTCDPVEMSYPRDQFQPAIRVADLLQHITQMKRGQGYGFKEEYEALPEGQTASWDTAKEDENRNKNRYGNIISYDHSRVRLLVLDGDPHSDYINANYIDGYHRPRHYIATQGPMQETVKDFWRMIWQENSASIVMVTNLVEVGRVKCVRYWPDDTEVYGDIKVTLIETEPLAEYVIRTFTVQKKGYHEIRELRLFHFTSWPDHGVPCYATGLLGFVRQVKFLNPPEAGPIVVHCSAGAGRTGCFIAIDTMLDMAENEGVVDIFNCVRELRAQRVNLVQTEEQYVFVHDAILEACLCGNTAIPVCEFRSLYYNISRLDPQTNSSQIKDEFQTLNIVTPRVRPEDCSIGLLPRNHDKNRSMDVLPLDRCLPFLISVDGESSNYINAALMDSHKQPAAFVVTQHPLPNTVADFWRLVFDYNCSSVVMLNEMDTAQFCMQYWPEKTSGCYGPIQVEFVSADIDEDIIHRIFRICNMARPQDGYRIVQHLQYIGWPAYRDTPPSKRSLLKVVRRLEKWQEQYDGREGRTVVHCLNGGGRSGTFCAICSVCEMIQQQNIIDVFHIVKTLRNNKSNMVETLEQYKFVYEVALEYLSSF
modifications: N-glycans with β1,6 GlcNAc branches (tri- and tetra-antennary), more of them in GnT-V overexpressing cells; sites not mapped
notes: receptor protein tyrosine phosphatase rho (PTPRT), type IIB receptor-like PTP, endogenous in human SMMC-7721 and HT29 cells; One molecule for PTPRT of Mock and of GnT-V overexpressing cells: the two differ only in the amount of β1,6 GlcNAc branches on unmapped N-glycan sites; also called PTPRT (ρ); source: endogenous, SMMC-7721 and HT29 cells stably infected with pCDH-puro (Mock) or …
B1 was tested, and the “intensity ratio of dimer to monomer, GnT-V cells against Mock cells” value was ~2 fold and the “stoichiometry N” value was 2.
